Test results as given in patent publication EP4678648A1.
pKd: −log10 of the molar value.

Target: FcRn (Neonatal Fc Receptor)
Assay: SPR (BIAcore T200), FcRn amine-coupled on CM5 chip, antibody 1.96-31.25 nM flowed, pH 6.0 or 7.4 not given, 1:1 fit; Table 4 taken as the FcRn table

pKd: 9.24
Substance: Trastuzumab (antibody)
